# Data taken from article PMC2836571 (Nucleic Acids Research, 2009).
# Target: the molecule itself
# Assay: SEC
protein,measurement,value
"ArdB from the E. coli K12 CP4-6 prophage (yafX) (natural protein, E. coli K12/CP4-6 prophage, UniProt P75676 1-152, looked up) MTTQTQHDLAPANQPEFELTVTPVPDEQRIDFWPQYFGAIPQWLLLEPHIFAWMDRFCEGYSGGIWSFYTLSNGGAFMSPEPDNDETWRLFNCLNGNDAQMSAEAAGIAVCLIAYSHHACRTECDAMTAHYYRLREYAMQHPEAHAILRIID",stoichiometry N,2
